Data from article PMC10019781, “Structure and function of Plasmodium actin II in the parasite mosquito stages” (PLOS Pathogens, 2023).

B1: Plasmodium falciparum actin II (natural protein)
chain: not shown
modifications: methyl-histidine at H73 (around 90% of actin II when expressed in insect cells)
notes: actin II of Plasmodium falciparum, PlasmoDB PF3D7_1412500; gene synthesized and codon-optimized for insect cells; In the pyrene assays (critical concentration, polymerization) a mixture of pyrene-labelled and unlabelled actin (ratio 1:3) was used; The first four N-terminal residues are not resolved in the filament maps; also called PfActII; F-actin II; source: Sf9 (Spodoptera frugiperda) cells, …
B2: Plasmodium actin I (natural protein)
chain: not shown
notes: actin I of Plasmodium; its cited filament structures are of P. falciparum actin I; in the pyrene assays a mixture of pyrene-labelled and unlabelled actin was used; also called F-actin I

Experiments:
[1] = molecular target: the molecule itself; test: dynamic light scattering; non-polymerizing conditions; 1.3 mg/ml, 70 ul, 4°C
[2] = molecular target: the molecule itself; test: dynamic light scattering; polymerizing conditions, without JAS; 1.3 mg/ml, 70 ul, 4°C

Row | Protein | stoichiometry N [1] | stoichiometry N [2]
1 | B1 | 2 | 
2 | B2 |  | 2
